The results in this text go back to patent US20120171195A1.

The target of experiment [1] is HLA-Cw*0303 (human). The experiment can be described thus: Luminex beads; MAb 1/800; PBS only.
Experiment [2] concerns the target HLA-B*4101 (human) (UniProt P01889). The experiment can be described thus: Luminex beads; MAb 1/800; PBS only.
In experiment [3] the target is HLA-Cw*1802 (human) (UniProt P10321). The experiment can be described thus: Luminex beads; MAb 1/800; PBS only.
The target in experiment [4] is HLA-B*8201 (human) (UniProt P01889). Nature of the experiment: Luminex beads; MAb 1/800; PBS only.
Experiment [5] addresses HLA-B*5101 (human). Nature of the experiment: Luminex beads; MAb 1/800; PBS only.
Experiment [6] has as its target HLA-B*5201 (human). Nature of the experiment: Luminex beads; MAb 1/800; PBS only.
For experiment [7], the target named is HLA-B*1513 (human). Nature of the experiment: Luminex beads; MAb 1/800; PBS only.
In experiment [8] the target is HLA-Cw*1701 (human). The experiment can be described thus: Luminex beads; MAb 1/800; PBS only.
Experiment [9] deals with HLA-B*1511 (human) (UniProt P01889). Nature of the experiment: Luminex beads; MAb 1/800; PBS only.
Experiment [10] deals with HLA-B*3701 (human). Nature of the experiment: Luminex beads; MAb 1/800; PBS only.
In experiment [11] the target is HLA-Cw*0602 (human) (UniProt P10321). The experiment can be described thus: Luminex beads; MAb 1/800; PBS only.
Experiment [12] deals with HLA-B*5801 (human). The experiment can be described thus: Luminex beads; MAb 1/800; PBS only.
Experiment [13] has as its target HLA-Cw*0304 (human). The experiment can be described thus: Luminex beads; MAb 1/800; PBS only.
Experiment [14] addresses HLA-B*4403 (human). Nature of the experiment: Luminex beads; MAb 1/800; PBS only.
Experiment [15] has as its target HLA-Cw*1601 (human) (UniProt P10321). Nature of the experiment: Luminex beads; MAb 1/800; PBS only.
Experiment [16] concerns the target HLA-B*4101 (human) (UniProt P01889). The experiment can be described thus: Luminex beads; MAb 1/100; competitor IgG-free serum.
Experiment [17] deals with HLA-B*1801 (human). Described as above.
The target of experiment [18] is HLA-Cw*0501 (human). The description is as above.
The target of experiment [19] is HLA-Cw*1402 (human) (UniProt P10321). The description is as above.
The target in experiment [20] is HLA-Cw*0202 (human). Described as above.
Experiment [21] has as its target HLA-B*1401 (human) (UniProt P01889). Described as above.
Experiment [22] has as its target HLA-Cw*1701 (human). The description is as above.
For experiment [23], the target named is HLA-B*1511 (human) (UniProt P01889). The experiment is described as above.
Experiment [24] concerns the target HLA-B*4006 (human) (UniProt P01889). The description is as above.
The target of experiment [25] is HLA-Cw*0801 (human) (UniProt P10321). Described as above.
Experiment [26] deals with HLA-Cw*0302 (human) (UniProt P10321). The description is as above.
For experiment [27], the target named is HLA-Cw*0702 (human) (UniProt P10321). The experiment is described as above.
In experiment [28] the target is HLA-Cw*0602 (human) (UniProt P10321). The description is as above.
Experiment [29] concerns the target HLA-B*5801 (human). Described as above.
Experiment [30] addresses HLA-B*4403 (human). The description is as above.
Experiment [31] has as its target HLA-Cw*1802 (human) (UniProt P10321). Nature of the experiment: Luminex beads; MAb 1/200; competitor IgG-free serum.
The target of experiment [32] is HLA-Cw*0501 (human). Described as above.
Experiment [33] addresses HLA-B*5201 (human). Described as above.
Experiment [34] addresses HLA-Cw*1701 (human). The experiment is described as above.
In experiment [35] the target is HLA-B*4006 (human) (UniProt P01889). The experiment is described as above.
Experiment [36] deals with HLA-Cw*0602 (human) (UniProt P10321). The description is as above.
Experiment [37] concerns the target HLA-B*5801 (human). The description is as above.
For experiment [38], the target named is HLA-Cw*0304 (human). The experiment is described as above.
Experiment [39] addresses HLA-B*5703 (B57) (human). The experiment can be described thus: Luminex single-antigen beads; MEM-E/02 1/600; serum Mi127 1/100.
Experiment [40] deals with HLA-B*3901 (B39) (human) (UniProt P01889). The description is as above.
Experiment [41] concerns the target HLA-B*1513 (B77) (human). Described as above.
Experiment [42] concerns the target HLA-A*2501 (A25) (human). Described as above.
Experiment [43] deals with HLA-B*1516 (B63) (human). The description is as above.
The target of experiment [44] is HLA-Cw*1701 (Cw17) (human). Described as above.
In experiment [45] the target is HLA-B*4801 (B48) (human) (UniProt P01889). Described as above.

Turning to “murine monoclonal antibody (MAb) MEM-E/02”, the MFI was determined as 805 MFI in experiment [1]; 960 MFI in experiment [2]; 4090 MFI in experiment [3]; 614 MFI in experiment [4]; 515 MFI in experiment [5]; 786 MFI in [6]. Further, the MFI in [7] is 760 MFI; in experiment [8], 847 MFI; in experiment [9], 796 MFI; in experiment [10], 993 MFI; in [11], 839 MFI; in [12] it was 835 MFI. For the same substance, the MFI in [13] is 783 MFI; in [14], 983 MFI; in [15] it was 752 MFI; in [16] it was 3390 MFI; in experiment [17], 3510 MFI; in experiment [18] it was 7530 MFI. Further, the MFI in experiment [19] was 3290 MFI; in [20] it was 4110 MFI; in experiment [21], 7080 MFI; in experiment [22] it was 2820 MFI; in [23], 3320 MFI; in experiment [24] it was 9090 MFI. The MFI came to 6070 MFI in experiment [25]; 2200 MFI in [26]; 3090 MFI in experiment [27]; 4180 MFI in [28]; 4570 MFI in [29]; 3900 MFI in experiment [30]. In addition, the MFI in experiment [31] came out at 8810 MFI; in [32], 6260 MFI; in [33], 2020 MFI; in experiment [34] it was 1930 MFI; in experiment [35], 7410 MFI; in [36] it was 2190 MFI. Besides, the MFI in experiment [37] stood at 3420 MFI; in experiment [38], 2030 MFI.

Turning to murine monoclonal antibody MAb MEM-E/02, the MFI was 917 MFI in experiment [39]; 1480 MFI in experiment [40]; less than 500 MFI in experiment [41]; 1840 MFI in [43]; less than 500 MFI in [44]. Besides, the % inhibition in experiment [40] was found to be 16%; in experiment [42], 36%; in experiment [45] it was 16%.

Usually % inhibition stands for how much of the control response was suppressed.
